Nine molecules from patent publication US20170342169A1 (published 2017) can be followed below.

Experiment [1] deals with T1, human CD40 on cells (HEK293 transfectants, HEK-Blue CD40 reporter cells, human B cells, moDC, PBMC) (human, UniProt P25942 21-277). Nature of the experiment: cell-based or functional assay.
Experiment [2] has as its target T1, human CD40 on cells (HEK293 …). Nature of the experiment: cell-based or functional assay. This is another data set of the same source.
In experiment [3] the target is CD40 (binding assays of Example 4; species and form not stated) (UniProt P25942 21-193, limits assumed). In words: antigen binding, method not stated.
Sequence of CD40 (binding assays of Example 4; species and form not stated) (P25942 21-193 limits assumed): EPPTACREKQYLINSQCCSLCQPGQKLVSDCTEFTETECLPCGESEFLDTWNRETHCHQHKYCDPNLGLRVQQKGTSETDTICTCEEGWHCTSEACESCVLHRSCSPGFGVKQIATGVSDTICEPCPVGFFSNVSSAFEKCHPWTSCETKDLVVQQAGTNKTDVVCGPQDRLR
The target in experiment [4] is cynomolgus 4-1BB (cynomolgus). Nature of the experiment: SPR.
The target of experiment [5] is T2, MSLN (Table 10-1; species and form not stated).
T2 construct: also called mesothelin
T2 sequence (Q13421 37-606): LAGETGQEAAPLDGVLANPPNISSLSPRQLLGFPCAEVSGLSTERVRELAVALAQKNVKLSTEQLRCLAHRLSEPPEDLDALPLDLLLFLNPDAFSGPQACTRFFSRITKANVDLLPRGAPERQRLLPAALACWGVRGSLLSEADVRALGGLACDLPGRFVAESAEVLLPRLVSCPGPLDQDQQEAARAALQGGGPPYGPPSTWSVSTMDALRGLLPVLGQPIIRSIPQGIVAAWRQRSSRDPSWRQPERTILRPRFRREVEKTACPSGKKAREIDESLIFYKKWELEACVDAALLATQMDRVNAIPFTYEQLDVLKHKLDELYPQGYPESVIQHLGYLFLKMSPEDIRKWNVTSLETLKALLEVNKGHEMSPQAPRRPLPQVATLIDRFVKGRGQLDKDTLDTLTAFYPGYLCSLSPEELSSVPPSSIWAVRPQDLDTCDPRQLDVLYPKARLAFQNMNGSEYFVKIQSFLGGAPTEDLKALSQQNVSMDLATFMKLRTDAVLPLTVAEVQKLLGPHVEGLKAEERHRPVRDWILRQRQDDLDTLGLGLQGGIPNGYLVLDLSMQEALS
Nature of the experiment: antigen binding, method not stated.

T1 sequence (P25942 21-277 limits assumed): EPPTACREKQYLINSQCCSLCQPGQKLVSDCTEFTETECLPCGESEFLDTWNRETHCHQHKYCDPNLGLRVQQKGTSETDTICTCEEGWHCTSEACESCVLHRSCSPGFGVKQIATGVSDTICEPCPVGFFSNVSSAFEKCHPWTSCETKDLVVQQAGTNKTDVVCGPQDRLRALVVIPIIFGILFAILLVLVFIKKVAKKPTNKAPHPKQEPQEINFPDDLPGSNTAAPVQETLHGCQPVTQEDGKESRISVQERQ

B1: CF1 (bispecific antibody, human IgG1, lambda)
heavy: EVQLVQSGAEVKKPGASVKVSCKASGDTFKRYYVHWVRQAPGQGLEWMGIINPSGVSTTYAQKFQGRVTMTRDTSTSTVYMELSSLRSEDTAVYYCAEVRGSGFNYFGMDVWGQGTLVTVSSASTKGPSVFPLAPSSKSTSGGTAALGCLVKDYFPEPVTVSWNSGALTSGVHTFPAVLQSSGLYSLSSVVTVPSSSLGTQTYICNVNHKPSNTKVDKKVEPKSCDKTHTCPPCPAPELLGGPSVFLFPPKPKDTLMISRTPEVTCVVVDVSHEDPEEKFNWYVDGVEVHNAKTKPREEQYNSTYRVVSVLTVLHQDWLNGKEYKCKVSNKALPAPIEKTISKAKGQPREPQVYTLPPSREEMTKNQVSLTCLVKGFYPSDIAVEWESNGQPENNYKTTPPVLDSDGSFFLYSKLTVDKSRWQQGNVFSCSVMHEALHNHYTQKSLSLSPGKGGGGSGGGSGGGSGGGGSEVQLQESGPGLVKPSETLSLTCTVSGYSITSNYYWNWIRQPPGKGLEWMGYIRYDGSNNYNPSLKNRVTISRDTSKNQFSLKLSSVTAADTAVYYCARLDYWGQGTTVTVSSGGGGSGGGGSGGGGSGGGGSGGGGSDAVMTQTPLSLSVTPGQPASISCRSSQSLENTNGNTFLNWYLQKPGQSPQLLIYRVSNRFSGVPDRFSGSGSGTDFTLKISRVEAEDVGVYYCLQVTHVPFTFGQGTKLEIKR
light: SYELTQPPSVSVSPGQTASITCSGDKLGDKYASWYQQKPGQSPVLVIYQDNRRPSGIPERFSGSNSGNTATLTISGTQAMDEADYYCQAWDSDTYVFGTGTKVTVLGQPKAAPSVTLFPPSSEELQANKATLVCLISDFYPGAVTVAWKADSSPVKAGVETTTPSKQSNNKYAASSYLSLTPEQWKSHRSYSCQVTHEGSTVEKTVAPTECS
As for B1, the “Max. IL-12p70, dendritic cells” value in experiment [1] came out at 100 pg/mL.

B2: CF3 (bispecific antibody, human IgG1, lambda)
heavy: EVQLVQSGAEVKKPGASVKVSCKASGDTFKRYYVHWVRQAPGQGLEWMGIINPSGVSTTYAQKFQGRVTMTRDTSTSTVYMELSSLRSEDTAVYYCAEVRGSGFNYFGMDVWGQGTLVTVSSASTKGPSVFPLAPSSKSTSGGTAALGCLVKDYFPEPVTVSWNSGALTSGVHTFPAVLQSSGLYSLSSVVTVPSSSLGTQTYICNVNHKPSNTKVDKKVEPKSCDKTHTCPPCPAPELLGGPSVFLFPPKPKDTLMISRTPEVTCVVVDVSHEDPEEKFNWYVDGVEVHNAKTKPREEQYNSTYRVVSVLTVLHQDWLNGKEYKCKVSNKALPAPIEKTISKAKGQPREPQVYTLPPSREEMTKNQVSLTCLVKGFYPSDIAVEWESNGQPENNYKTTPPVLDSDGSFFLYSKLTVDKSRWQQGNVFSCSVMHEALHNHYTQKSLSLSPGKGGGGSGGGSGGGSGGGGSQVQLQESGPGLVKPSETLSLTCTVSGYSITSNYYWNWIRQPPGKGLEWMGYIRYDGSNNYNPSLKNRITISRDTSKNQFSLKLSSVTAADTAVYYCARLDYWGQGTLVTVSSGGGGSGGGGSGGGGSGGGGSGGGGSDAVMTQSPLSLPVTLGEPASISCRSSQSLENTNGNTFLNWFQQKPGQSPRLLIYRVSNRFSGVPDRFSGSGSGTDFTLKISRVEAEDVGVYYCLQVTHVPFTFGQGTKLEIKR
light: SYELTQPPSVSVSPGQTASITCSGDKLGDKYASWYQQKPGQSPVLVIYQDNRRPSGIPERFSGSNSGNTATLTISGTQAMDEADYYCQAWDSDTYVFGTGTKVTVLGQPKAAPSVTLFPPSSEELQANKATLVCLISDFYPGAVTVAWKADSSPVKAGVETTTPSKQSNNKYAASSYLSLTPEQWKSHRSYSCQVTHEGSTVEKTVAPTECS
On to B2, for which the “Max. IL-12p70, dendritic cells” value in experiment [1] came to 75 pg/mL.

B3: huAb8-1 (antibody, human IgG1, V domains shown)
VH: EVQLVQSGAEVKKPGSSVKVSCKASGYTFTDYYINWVRQAPGQGLEWIGWIFPGSGSVYCNEQFKGRATLTVDRSTSTAYMELSSLRSEDTAVYFCASSLGKFAYWGQGTLVTVSS
VL: DIQMTQSPSSLSASVGDRVTITCKASQSVVTAVAWYQQKPGKSPKLLIYSASNRYTGVPSRFSGSGSGTDFTLTISSLQPEDFATYFCQQYSSYPYTFGGGTKVEIK
As usually defined, the EC50 is the midpoint of the concentration-response curve. Take B3: the “Maximal activation (OD655)” value in experiment [2] came to 0.45 OD655. In experiment [3], this molecule had an EC50 of 0.4 µg/mL.

B4: huAb9-5 (antibody, human IgG1, kappa)
heavy: not shown
light: DAVMTQTPLSLSVTPGQPASISCRSSQSLENTNGNTFLNWYLQKPGQSPQLLIYRVSNRFSGVPDRFSGSGSGTDFTLKISRVEAEDVGVYYCLQVTHVPFTFGQGTKLEIKRTVAAPSVFIFPPSDEQLKSGTASVVCLLNNFYPREAKVQWKVDNALQSGNSQESVTEQDSKDSTYSLSSTLTLSKADYEKHKVYACEVTHQGLSSPVTKSFNRGEC
notes: human IgG1, kappa
Consider B4, for which the “Maximal activation (OD655)” value in experiment [2] was determined as 0.67 OD655. Besides, in experiment [3], the midpoint of the response, the EC50, lay at 0.2 µg/mL.

B5: TABBY107-rIgG1 (antibody, V domains shown)
VH: QVKLVQSGAALVKPGASVKMSCKASDYTFNDYWVSWVKQRHGESLEWIGEIYPNSGATNFNGKFRGKATLTVDNPTSTAYMELSRLTSEDSAIYYCTREYTRDWFAYWGQGTLVTVSS
VL: DVVLTQTPSILSATIGQSVSISCRSSQSLLDSDGNTYLYWFLQRPGQSPQRLIYLVSNLGSGVPNRFSGSGSGTDFTLKISGVEAEDLGIYYCMQPTHAPYTFGAGTKLELK
notes: Rat IgG1, kappa
The Kd is the equilibrium constant for the complex coming apart. Read a low Kd as higher affinity. Broadly, the koff is the first-order rate constant of dissociation. A high value points to fast dissociation. One may read the kon as the rate constant with which the complex forms. In experiment [4], B5 displayed a Kd of 0.36 nM, an off-rate (koff) of 0.00013 s⁻¹ and a kon of 350000 M⁻¹ s⁻¹.

B6: LB-1 (bispecific antibody, mouse IgG1)
chain: EVQLVESGGGLVQPGRSLKLSCAASGFTFSNYDMAWVRQAPTKGLEWVASISPSGGRTYYRDSVKGRFTVSRDNAKSTLYLQMDSLRSEDTATYYCARHDGSYFDYWGQGVMVTVSSDLSGGGGSGGGGSGGGGSGGGGSTGDTVLTQSPALAVSPGERVTISCRASESVSTLMHWYQQKPGQQPKLLIYLASHLESGVPARFSGSGSGTDFTLTIDPVEADDTATYYCQESWNDPWTFGGGTKLELKRLEVPRDSGSKPCICTVPEVSSVFIFPPKPKDVLTITLTPKVTCVVVDISKDDPEVQFSWFVDDVEVHTAQTQPREEQFNSTFRSVSELPIMHQDWLNGKEFKCRVNSAAFPAPIEKTISKTKGRPKAPQVYTIPPPKEQMAKDKVSLTCMITDFFPEDITVEWQWNGQPAENYKNTQPIMDTDGSYFVYSKLNVQKSNWEAGNTFTCSVLHEGLHNHHTEKSLSHSPGKVDGASSPVNVSSPSVQDIQVQLVQSGAEVKKPGASVKVSCKASGYTFTGNYINWVRQAPGQGLEWMGIINPTKGWTLYAQKFQGRVTMTRDTSISTAYMELSSLRSEDTAVYYCARWHHGTWIFDYWGQGTLVTVSSDLSGGGGSGGGGSGGGGSGGGGSTGDIVLTQPPSVSGAPGQRVTISCSGSSSNIGSNYVSWYQQLPGTAPKLLIYNDNQRPSGVPDRFSGSKSGTSASLAITGLQSEDEADYYCSTYDRRTFSVFGGGTKLTVLG
notes: 1C10 scFv (VH-VL), murine IgG1 hinge-CH2-CH3, MOR06626 scFv (VH-VL)
Molecule B6 came in with a concentration for a half-maximal effect (EC50) in experiment [5] of 1.39 µg/mL.

B7: anti-MSLN antibody (MOR06626 mIgG1) (antibody, V domains shown)
VH: QVQLVQSGAEVKKPGASVKVSCKASGYTFTGNYINWVRQAPGQGLEWMGIINPTKGWTLYAQKFQGRVTMTRDTSISTAYMELSSLRSEDTAVYYCARWHHGTWIFDYWGQGTLVTVSS
VL: DIVLTQPPSVSGAPGQRVTISCSGSSSNIGSNYVSWYQQLPGTAPKLLIYNDNQRPSGVPDRFSGSKSGTSASLAITGLQSEDEADYYCSTYDRRTFSVFGGGTKLTVLG
Molecule B7 came in with an EC50 in experiment [5] of 0.06 µg/mL.

B8: TABBY106-rIgG1 (antibody, V domains shown)
VH: QVQLQQSGAELAKPGTSVKLSCKASGYTFTSYYIYWVKQRPGQGLEWIGNIWPGNGGTFYGEKFMGKATFTADTSSSTAYMLLGSLTPEDSAYYFCARRPDYSGDDYFDYWGQGVLVTVSS
VL: QVVLTQPKSVSTSLKSTVKLSCKLNSGNIGSYYVHWYQQHAGRSPTTMIYRDDKRPDGVPDRFSGSIDSSSNSAFLTINNVQTEDDAIYFCHSYDSTITPVFGGGTKLTVL
notes: Rat IgG1, lambda
B8: in experiment [4], the dissociation constant (Kd) came out at 18 nM, the off-rate constant (koff) was 0.022 s⁻¹ and the kon amounted to 1.2e+06 M⁻¹ s⁻¹.

B9: B39 (bispecific antibody, IgG2)
chain: EVQLQESGPGLVKPSETLSLTCTVSGYSITSNYYWNWIRQPPGKGLEWMGYIRYDGSNNYNPSLKNRVTISRDTSKNQFSLKLSSVTAADTAVYYCARLDYWGQGTTVTVSSDLSGGGGSGGGGSGGGGSGGGGSTGDAVMTQTPLSLSVTPGQPASISCRSSQSLENTNGNTFLNWYLQKPGQSPQLLIYRVSNRFSGVPDRFSGSGSGTDFTLKISRVEAEDVGVYYCLQVTHVPFTFGQGTKLEIKRVERKSSVECPPCPAPPVAGPSVFLFPPKPKDTLMISRTPEVTCVVVDVSHEDPEVQFNWYVDGVEVHNAKTKPREEQFNSTFRVVSVLTVVHQDWLNGKEYKCKVSNKGLPAPIEKTISKTKGQPREPQVYTLPPSREEMTKNQVSLTCLVKGFYPSDIAVEWESNGQPENNYKTTPPMLDSDGSFFLYSKLTVDKSRWQQGNVFSCSVMHEALHNHYTQKSLSLSPGKVDGASSPVNVSSPSVQDIEVQLVQSGAEVKKPGASVKVSCKASGDTFKRYYVHWVRQAPGQGLEWMGIINPSGVSTTYAQKFQGRVTMTRDTSTSTVYMELSSLRSEDTAVYYCAEVRGSGFNYFGMDVWGQGTLVTVSSDLSGGGGSGGGGSGGGGSGGGGSTGSYELTQPPSVSVSPGQTASITCSGDKLGDKYASWYQQKPGQSPVLVIYQDNRRPSGIPERFSGSNSGNTATLTISGTQAMDEADYYCQAWDSDTYVFGTGTKVTVLGQ
notes: huAb9-5 (VH-VL) N-terminal, HuAM15 (VH-VL) C-terminal, huIgG2
Turning to B9, the response in experiment [3] was half-maximal at 0.5 µg/mL (EC50).
